This note sets out measurements from patent US20200123268A1 (UNIVERSIT DEGLI STUDI MAGNA GRAECIA CATANZARO, published 2020).

The target in test [1] is T1, human CD43, endogenous, on primary cells and cell lines that carry the UMG1 epitope (human, UniProt P16150 20-400, native glycosylation of the cell concerned).
T1 construct: also called UMG1 antigen; the target
T1 sequence: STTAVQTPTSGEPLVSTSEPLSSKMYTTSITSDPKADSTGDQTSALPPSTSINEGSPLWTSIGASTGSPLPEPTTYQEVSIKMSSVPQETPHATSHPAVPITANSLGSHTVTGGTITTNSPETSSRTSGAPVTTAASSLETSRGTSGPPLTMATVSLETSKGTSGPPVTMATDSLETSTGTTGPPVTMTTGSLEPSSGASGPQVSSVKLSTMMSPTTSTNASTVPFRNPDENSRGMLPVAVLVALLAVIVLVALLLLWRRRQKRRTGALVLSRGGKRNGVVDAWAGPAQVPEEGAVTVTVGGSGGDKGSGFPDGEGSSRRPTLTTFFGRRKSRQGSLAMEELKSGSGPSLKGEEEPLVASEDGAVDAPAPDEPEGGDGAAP
The experiment in a line: competition flow cytometry on HPB-ALL cells against 1 ug/ml h-UMG1-PE. For orientation: A flow cytometer gives signals particle by particle.
Procedure: (§1) Approximately, 500,000 cells were collected and stained for each test. Cell were analyzed and measured with FACS Canto (Becton Dickinson) and analyzed by DIVA software (BD FACSDiva™ software). For each measurement 10,000 events were gated using the DIVA software. Each experiment was performed in triplicate.

For test [2], the target named is T2, recombinant human CD43 extracellular portion (aa 20-253) produced in E. coli (human, UniProt P16150 20-253).
T2 construct: Made in E. coli, without mammalian glycosylation; No tags are stated; also called aglycosylated extracellular portion of CD43; unglycosylated-CD43 protein
T2 sequence: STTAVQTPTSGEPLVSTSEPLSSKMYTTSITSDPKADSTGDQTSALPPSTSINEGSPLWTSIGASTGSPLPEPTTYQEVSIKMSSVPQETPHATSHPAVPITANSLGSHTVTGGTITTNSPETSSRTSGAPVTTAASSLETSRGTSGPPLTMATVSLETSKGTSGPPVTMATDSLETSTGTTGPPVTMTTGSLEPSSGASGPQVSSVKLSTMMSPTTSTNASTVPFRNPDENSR
As to the kind of experiment: SPRi (PlexArray HT), antibody printed on the chip, CD43 aa 20-253 from E. coli as analyte, 25 C.
Procedure: (§2) Antibodies dissolved in water were manually printed onto the bare gold-coated (thickness 47 nm) PlexArray Nanocapture Sensor Chip (Plexera Bioscience, Seattle, Wash., US) at 40% humidity. Different concentration of the analytes (CD43) were tested for affinity. Each concentration was printed in replicate, and each spot contained 0.2 uL of sample solution. The chip was incubated in 80% humidity at 4° C. for overnight, and rinsed with 10×PBST for 10 min, 1×PBST for 10 min, and deionized water twice for 10 min. The chip was then blocked with 5% (w/v) non-fat milk in water overnight, and washed with 10×PBST for 10 min, lx PBST for 10 min, and deionized water twice for 10 min before being dried under a stream of nitrogen prior to use. SPRi measurements were performed with PlexAray HT (Plexera Bioscience, Seattle, Wash., US). Collimated light (660 nm) passes through the coupling prism, reflects off the SPR-active gold surface, and is received by the CCD camera. […] The signal changes after binding and washing (in AU) are recorded as the assay value.
(§3) Selected protein-grafted regions in the SPR images were analyzed, and the average reflectivity variations of the chosen areas were plotted as a function of time. Real-time binding signals were recorded and analyzed by Data Analysis Module (DAM, Plexera Bioscience, Seattle, Wash., US). […]

The target in test [3] is T3, CD43 #6 (CD43 with deletion of aa 64 to 78), expressed in HEK293T cells (human, UniProt P16150 20-400).
T3 construct: also called CD43 Clone #6; not shown: His tag from the vector pLenti-CMV-(insert)-Histag-GFP-2A-Puro
T3 sequence: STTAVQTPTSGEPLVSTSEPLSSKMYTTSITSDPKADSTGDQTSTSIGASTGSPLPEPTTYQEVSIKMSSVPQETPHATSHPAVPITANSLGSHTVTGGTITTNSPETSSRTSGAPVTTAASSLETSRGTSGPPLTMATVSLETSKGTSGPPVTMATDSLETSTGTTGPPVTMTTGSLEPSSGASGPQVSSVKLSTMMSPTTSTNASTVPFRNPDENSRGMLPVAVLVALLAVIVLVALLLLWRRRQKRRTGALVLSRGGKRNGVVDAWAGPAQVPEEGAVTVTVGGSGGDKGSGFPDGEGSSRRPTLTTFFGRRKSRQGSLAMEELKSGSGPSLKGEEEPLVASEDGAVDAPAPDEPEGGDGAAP
The experiment in a line: western blot of lysates of transfected HEK293T cells. (In general: Immunoblotting shows a protein as a band on a membrane.)

The target of test [4] is T4, CD43 #5 (truncated CD43, aa 91-400), expressed in HEK293T cells (human, UniProt P16150 91-400).
T4 construct: also called CD43 Clone #5; not shown: His tag from the vector pLenti-CMV-(insert)-Histag-GFP-2A-Puro
T4 sequence: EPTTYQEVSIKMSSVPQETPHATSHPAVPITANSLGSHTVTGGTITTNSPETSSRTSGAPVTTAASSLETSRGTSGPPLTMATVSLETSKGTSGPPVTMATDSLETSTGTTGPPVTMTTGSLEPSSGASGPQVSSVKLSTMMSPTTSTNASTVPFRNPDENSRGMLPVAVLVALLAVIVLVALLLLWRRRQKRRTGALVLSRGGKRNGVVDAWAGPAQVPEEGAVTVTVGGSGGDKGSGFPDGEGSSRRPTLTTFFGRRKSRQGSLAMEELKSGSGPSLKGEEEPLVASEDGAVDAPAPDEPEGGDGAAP
The test is described as above.

The target in test [5] is T2, recombinant human CD43 extracellular …. The experiment in a line: SPRi (PlexArray HT), antibody printed on the chip, Recombinant Human CD-43 (AA20-253) as analyte at 2.84 to 45.6 nM, 25 C.
Procedure: as §2, §3
Test [6] deals with T1, human CD43, endogenous, on primary …. The experiment in a line: competition flow cytometry on CEM cells against 1 ug/ml h-UMG1-PE.
Procedure: as §1

B1: h-UMG1 (humanized UMG1 antibody H3-L4) (antibody, human IgG1, kappa, V domains shown)
VH: EVQLVESGGGLVQPGGSLRLSCVASGFTFSSFGMHWVRQAPGKGLEWVAYISSGSGNFYYVDTVKGRFTISRDNAKNSLYLQMNSLRAEDTAVYYCARSTYYHGSRGAMDYWGQGTLVTVSS
VL: QVVMTQSPAFLSVTPGEKVTITCSASSSVSSMYWYQLKPDQAPKLLIYDTSKMASGVPIRFSGSGSGTDFTFTVSSVEAEDAATYYCQQWSSYPPITFGGGTKVEIKR
notes: The full chains are given as Human Heavy Chain (VH3) and Human Light Chain (VL4); IgG1; also called unconjugated h-UMG1
For B1, the “IC50 (read off the curve)” value in test [1] was around 0.4 µg/mL; in test [6] it was around 0.04 µg/mL. Further, the equilibrium dissociation constant (Kd) (as a rule, a measure of binding affinity in units of concentration) in test [2] is 99.4 nM. Moreover, the binding result in test [3] and in test [4] was “no binding (tested: 1:500 dilution)” throughout. For the same molecule, the koff (in general, the first-order rate constant of dissociation) in test [5] is 0.000511 s⁻¹. Besides, in test [5], the association rate constant (kon) (commonly the second-order rate constant of association) came out at 5140 M⁻¹ s⁻¹.
